Test: Stability of the kit components after storage
Format: physicochemical
Conditions: 14 days storage
From the text: The mechanical properties (storage and loss moduli G′ and G″) are identical at D0, D7 or D21 storage.
The activity of the enzyme AMG was preserved after 14 days storage allowing a long term storage of the kit components.

glucan 1,4 α-glucosidase [AMG]
activity of the enzyme after storage: preserved

— patent publication US9931433B2, “Time-controlled glucose releasing hydrogels and applications thereof” (Centre National de la Recherche Scientifique (CNRS), priority 2014, dated 2018)
